T1: CD25 (recombinant) (human, UniProt P01589 22-213, limits assumed)
T1 construct: bought protein; also called IL2-R alpha; IL2-Rα
T1 sequence (looked up): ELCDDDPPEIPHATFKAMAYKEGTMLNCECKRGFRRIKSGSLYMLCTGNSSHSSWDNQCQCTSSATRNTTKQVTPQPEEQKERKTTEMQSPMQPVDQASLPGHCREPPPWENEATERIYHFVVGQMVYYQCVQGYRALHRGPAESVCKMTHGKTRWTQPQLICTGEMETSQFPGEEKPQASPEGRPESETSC

T2: CD25 on Kit225/K6 cells (human, UniProt P01589 22-272)
T2 sequence (looked up): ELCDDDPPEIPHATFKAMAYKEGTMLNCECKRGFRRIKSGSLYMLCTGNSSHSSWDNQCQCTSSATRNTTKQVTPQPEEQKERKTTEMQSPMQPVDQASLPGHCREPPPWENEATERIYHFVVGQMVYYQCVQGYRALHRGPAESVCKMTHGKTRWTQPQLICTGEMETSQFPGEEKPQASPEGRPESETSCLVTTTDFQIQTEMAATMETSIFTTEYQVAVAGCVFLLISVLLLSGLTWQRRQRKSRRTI

T3: human CD25 (human, UniProt P01589 22-213, limits assumed)
T3 construct: Recombinant soluble human CD25, coated on plates (ELISA) or injected over captured antibody (BIAcore); also called hCD25; IL2-R alpha
T3 sequence (looked up): T1 sequence (looked up)

T4: human CD25 (recombinant soluble) (human, UniProt P01589 22-240)
T4 construct: extracellular domain; bought protein; also called IL2-Rα; recombinant human IL2-Rα
T4 sequence (looked up): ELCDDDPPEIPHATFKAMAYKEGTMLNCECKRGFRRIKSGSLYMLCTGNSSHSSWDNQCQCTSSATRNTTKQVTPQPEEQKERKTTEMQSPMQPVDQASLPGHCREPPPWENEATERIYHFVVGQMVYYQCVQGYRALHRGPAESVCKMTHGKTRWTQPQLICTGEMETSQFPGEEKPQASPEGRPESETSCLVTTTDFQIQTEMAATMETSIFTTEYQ

B1: Variant C51 (antibody, V domains shown)
VH: QVQLVQSGAEVKKPGSSVKVSCKASGYTFTSYRMHWVRQAPGQGLEWMGYIKPNKGYTEYNQKFKDKATITADESTNTAYMELSSLRSEDTAVYYCARGGGVFDYWGQGTLVTVSS
VL: DIQMTQSPSTLSASVGDRVTITCSASSKISYMHWYQQKPGKAPKLLIYTTSDLASGVPARFSGSGSGTEFTLTISSLQPDDFATYYCHQRSTYPLTFGQGTKVEVK
B2: Variant C49 (antibody, V domains shown)
VH: B1 VH with K52S
VL: B1 VL
B3: Variant C63 (antibody, V domains shown)
VH: B1 VH with K55S, Y57R
VL: B1 VL
B4: Variant C54 (antibody, V domains shown)
VH: B1 VH with K52S, N54R, K55S, Y57R
VL: B1 VL
B5: Variant C44 (antibody, V domains shown)
VH: B1 VH with K52S, N54K
VL: B1 VL
B6: Variant C52 (antibody, V domains shown)
VH: B1 VH with K55S
VL: B1 VL
B7: Variant C53 (antibody, V domains shown)
VH: B1 VH with K52S, N54R, Y57R
VL: B1 VL
B8: Variant C57 (antibody, V domains shown)
VH: B1 VH with N54K, K55S, Y57R
VL: B1 VL
B9: Variant C47 (antibody, V domains shown)
VH: B1 VH with K52R, N54K
VL: B1 VL
B10: Variant C48 (antibody, V domains shown)
VH: B1 VH with K52R, N54K, K55S
VL: B1 VL
B11: Variant C45 (antibody, V domains shown)
VH: B1 VH with K52S, N54K, K55S
VL: B1 VL
B12: Variant C46 (antibody, V domains shown)
VH: B1 VH with N54K, K55S
VL: B1 VL
B13: Variant C50 (antibody, V domains shown)
VH: B1 VH with K52S, K55S
VL: B1 VL
B14: Variant C55 (antibody, V domains shown)
VH: B1 VH with K52S, N54K, Y57R
VL: B1 VL
B15: Variant C60 (antibody, V domains shown)
VH: B1 VH with K52S, Y57R
VL: B1 VL
B16: Variant C61 (antibody, V domains shown)
VH: B1 VH with K52S, K55S, Y57R
VL: B1 VL
B17: Variant C59 (antibody, V domains shown)
VH: B1 VH with K52R, N54K, K55S, Y57R
VL: B1 VL
B18: Variant C62 (antibody, V domains shown)
VH: B1 VH with Y57R
VL: B1 VL
B19: daclizumab variant S77 (antibody, IgG1, name in Kabat numbering, V domains shown)
VH: B1 VH with K52N, N54S, K55T
VL: B1 VL with K28S, D52N
notes: IgG1; Kabat positions; also called I48M; DAC I48M
B20: NST-RN (antibody, IgG1, V domains shown)
VH: B1 VH with M48I, K52N, N54S, K55T
VL: B1 VL with K28R, D52N
B21: T50A (antibody, IgG1, V domains shown)
VH: B1 VH with M48I, K52N, N54S, K55T
VL: B1 VL with K28S, T49A, D52N
B22: RKT-SE (antibody, IgG1, name in Kabat numbering, V domains shown)
VH: B1 VH with M48I, K52R, N54K, K55T
VL: B1 VL with K28S, D52E
B23: VRR-SE (antibody, IgG1, name in Kabat numbering, V domains shown)
VH: B1 VH with M48I, K52V, N54R, K55R
VL: B1 VL with K28S, D52E
notes: IgG1/kappa; also called VRRE-SE
B24: SRK-SE (antibody, IgG1, name in Kabat numbering, V domains shown)
VH: B1 VH with M48I, K52S, N54R
VL: B1 VL with K28S, D52E
notes: IgG1/kappa; also called S52R53K54 VH with S29E53 VL
B25: Y32A (antibody, IgG1, name in Kabat numbering, V domains shown)
VH: B1 VH with M48I, K52N, N54S, K55T
VL: B1 VL with K28S, Y31A, D52N
B26: S31A (antibody, IgG1, V domains shown)
VH: B1 VH with M48I, K52N, N54S, K55T
VL: B1 VL with K28S, S30A, D52N
B27: RNR-SE (antibody, IgG1, name in Kabat numbering, V domains shown)
VH: B1 VH with M48I, K52R, K55R
VL: B1 VL with K28S, D52E
notes: IgG1/kappa
B28: Variant C19 (antibody, name in Kabat numbering, V domains shown)
VH: B1 VH with M48I, K52S, N54R
VL: B1 VL with K28S, D52E
notes: Isotype as printed: G1 fa; also called SRK-SE
B29: Variant C26 (antibody, name in Kabat numbering, V domains shown)
VH: B1 VH with M48I, N54S, K55R, E74K
VL: B1 VL with K28S, D52E
notes: Isotype as printed: G1 fa; E to K read as E73K
B30: Variant C16 (antibody, name in Kabat numbering, V domains shown)
VH: B1 VH with M48I, K52R, K55R
VL: B1 VL with K28S, D52E
notes: Isotype as printed: G1 fa; also called RNR-SE
B31: Variant C15 (antibody, name in Kabat numbering, V domains shown)
VH: B1 VH with M48I, K52V, N54R, K55R
VL: B1 VL with K28S, D52E
notes: Isotype as printed: G1 fa; also called VRR-SE

Substitutions are numbered along the chain they refer to. In names and notes the source's numbering stands.

For one assay, the target named is T5, cynomolgous monkey CD25 (cynomolgous monkey).
T5 construct: also called cmCD25; cm
Briefly: SPR (BIAcore), cynomolgous CD25. On the technique in general: SPR reads the build-up and loss of mass on a sensor chip optically.
What is called Kd is a measure of binding affinity in units of concentration. B1 had a Kd of 0.093 nM.
Molecule B2 had a Kd of 0.0079 nM.
In turn, B3 came in with a Kd of 0.063 nM.
On the same count and under the same terms, under B4 stands 0.055 nM.
In the case of B5, the Kd stood at 0.042 nM.
On to B6, for which the dissociation constant (Kd) was found to be 0.075 nM.
As for B7, the dissociation constant (Kd) was < 0.0024 nM.
For B8, the Kd amounted to 0.078 nM.
The same measure, in the same setting: under B9 stands 0.1 nM; under B10, 0.053 nM; under B11, 0.055 nM.
B12: binding was put at a Kd of 0.011 nM.
B13 returned a Kd of 0.026 nM.
Still for that read-out and setting: under B14 stands 0.049 nM.
Consider B15, for which the Kd was < 0.0023 nM.
As for B16, binding was characterised by a dissociation constant (Kd) of 0.055 nM.
Molecule B17 had a Kd of 0.05 nM.
Take B18: the dissociation constant (Kd) worked out at 0.1 nM.

The target in another assay is T1, CD25 (recombinant). As to the kind of experiment: SPR (BIAcore).
In the case of B19, the equilibrium dissociation constant (Kd) was determined as 0.478 nM.

The next assay concerns the target T2, CD25 on Kit225/K6 cells. As to the kind of experiment: cell-based or functional assay.
On to B20, for which the “Functional improvement (inhibition of proliferation of Kit225/K6 cells; IC50 normalized to wild type daclizumab)” value is 1.5 fold.
In the case of B21, the “Functional improvement (inhibition of proliferation of Kit225/K6 cells; IC50 normalized to wild type daclizumab)” value turned out to be 0.8 fold.
Still for that read-out and setting: under B22 stands 2 fold.
As to B23, the “Functional improvement (inhibition of proliferation of Kit225/K6 cells; IC50 normalized to wild type daclizumab)” value was found to be 1.2 fold.
As for B24, the “Functional improvement (inhibition of proliferation of Kit225/K6 cells; IC50 normalized to wild type daclizumab)” value was 3.5 fold.
Regarding B25, the “Functional improvement (inhibition of proliferation of Kit225/K6 cells; IC50 normalized to wild type daclizumab)” value turned out to be 0.4 fold.
As for B26, the “Functional improvement (inhibition of proliferation of Kit225/K6 cells; IC50 normalized to wild type daclizumab)” value was found to be 0.7 fold.
As to B27, the “Functional improvement (inhibition of proliferation of Kit225/K6 cells; IC50 normalized to wild type daclizumab)” value was determined as 2.4 fold.

Another assay concerns the target T5, cynomolgous monkey CD25. As to the kind of experiment: SPR (BIAcore), cynomolgous CD25. This is another data set of the same source.
Regarding B1, binding was characterised by a dissociation constant (Kd) of 0.093 nM.
For B2, the affinity, expressed as Kd, was 0.0079 nM.
Consider B3, for which binding was put at a Kd of 0.063 nM.
B4 had a Kd of 0.055 nM.
Molecule B5 yielded a dissociation constant (Kd) of 0.042 nM.
Molecule B6 came in with a dissociation constant (Kd) of 0.075 nM.
Consider B7, for which the Kd was < 0.0024 nM.
Turning to B8, the dissociation constant (Kd) stood at 0.078 nM.
Take B9: binding was put at a Kd of 0.1 nM.
Molecule B10 returned a dissociation constant Kd of 0.053 nM.
The same measure, in the same setting: with B11 the figure was 0.055 nM; with B12, 0.011 nM; with B13, 0.026 nM.
In turn, B14 showed a dissociation constant Kd of 0.049 nM.
For the molecule B15, the dissociation constant Kd was < 0.0023 nM.
In the case of B16, the Kd turned out to be 0.055 nM.
With B17, the Kd worked out at 0.05 nM.
The same measure, in the same setting: under B18 stands 0.1 nM.

For the next assay, the target named is T3, human CD25. As to the kind of experiment: SPR (BIAcore).
Molecule B28 displayed a Kd of 0.016 nM.
The molecule B29 had a dissociation constant Kd of 0.121 nM.
Turning to B30, the dissociation constant (Kd) was determined as 0.022 nM.
On the same count and under the same terms, under B31 stands 0.029 nM.

For a further assay, the target named is T4, human CD25 (recombinant soluble). As to the kind of experiment: SPR (BIAcore), antibody captured, CD25 injected.
A word on the koff: it is a measure of how fast the partners let go of each other. As usually defined, the kon is the rate constant with which the complex forms. Consider B23, for which the “Affinity improvement (KD normalized to wild type daclizumab)” value worked out at 17 fold, the dissociation constant Kd turned out to be 0.029 nM, the koff was 3.29e-05 s⁻¹ and the kon stood at 1.24e+06 M⁻¹ s⁻¹.
Consider B24, for which the “Affinity improvement (KD normalized to wild type daclizumab)” value turned out to be 31 fold, the Kd worked out at 0.016 nM, the off-rate constant (koff) worked out at 2.18e-05 s⁻¹ and the kon is 1.38e+06 M⁻¹ s⁻¹.
Take B27: the “Affinity improvement (KD normalized to wild type daclizumab)” value came to 23 fold, the equilibrium dissociation constant (Kd) amounted to 0.022 nM, the koff came to 3.34e-05 s⁻¹ and the kon was 1.54e+06 M⁻¹ s⁻¹.

(Values after patent US20200308290A1 (AbbVie / Abbott, published 2020).)
